The target in series [1] is T1, hPUF_MT(R2_N12S,Q16E, R3→R5, R4→R6) (R2 repeat N12S,Q16E).
T1 chain: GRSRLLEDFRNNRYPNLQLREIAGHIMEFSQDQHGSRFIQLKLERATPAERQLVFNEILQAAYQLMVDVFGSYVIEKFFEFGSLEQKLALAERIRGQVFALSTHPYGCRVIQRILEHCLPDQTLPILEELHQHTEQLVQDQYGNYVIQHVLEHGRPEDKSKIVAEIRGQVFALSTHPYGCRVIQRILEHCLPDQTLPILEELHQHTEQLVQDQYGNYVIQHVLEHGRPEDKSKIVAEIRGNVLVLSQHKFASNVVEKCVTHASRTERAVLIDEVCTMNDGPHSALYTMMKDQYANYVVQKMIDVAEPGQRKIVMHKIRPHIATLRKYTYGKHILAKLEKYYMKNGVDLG
The experiment in a line: EMSA; binds G exclusively. To be noted: label: Alexa680 at 5' and 3'.

The target of series [2] is T2, hPUF_MT(R8_N12S,Q16E, R3→R5, R4→R6) (R8 repeat N12S,Q16E).
T2 chain: T1 chain with S72N, E76Q, N295S, Q299E
Briefly: EMSA; binds G exclusively. To be noted: label: Alexa680 at 5' and 3'.

The target in series [3] is T3, hPUF_MT(R7_S12N,E16Q, R3→R5, R4→R6) (R7 repeat S12N,E16Q).
T3 chain: T1 chain with S72N, E76Q, S252N, E256Q
Briefly: EMSA; binds U exclusively. To be noted: label: Alexa680 at 5' and 3'. Background: In EMSA bound probe runs differently from free probe, usually more slowly.

The target in another series is T4, hPUF_MT(R4→R6) (UniProt Q14671 SEQ:1-349).
T4 chain: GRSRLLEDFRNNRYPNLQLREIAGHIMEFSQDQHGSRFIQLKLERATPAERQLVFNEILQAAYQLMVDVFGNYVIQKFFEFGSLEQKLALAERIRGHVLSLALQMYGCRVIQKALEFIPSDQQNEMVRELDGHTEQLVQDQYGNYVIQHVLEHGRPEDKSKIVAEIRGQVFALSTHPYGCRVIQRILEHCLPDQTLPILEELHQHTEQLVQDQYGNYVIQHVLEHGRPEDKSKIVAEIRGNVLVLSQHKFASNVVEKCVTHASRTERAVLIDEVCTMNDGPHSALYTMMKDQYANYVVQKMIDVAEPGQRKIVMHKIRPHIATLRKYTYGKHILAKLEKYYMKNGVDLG
The experiment in a line: EMSA; comparable to WT. To be noted: label: Alexa680 at 5' and 3'. The method, then:
(§1) An RNA probe (OTS-1511) containing a target sequence fluorescence-labeled with Alexa680 at both ends thereof was synthesized.
(§2) Each purified protein was diluted to a desired concentration with Binding Buffer, mixed with a binding buffer and Ribonuclease Inhibitor, Cloned (Invitrogen), and then, mixed with the RNA probe at a final concentration of 0.5 nM. […] A binding reaction was performed at 4° C. for 30 min. Subsequently, the solution was gently mixed by pipetting. A binding reaction was performed again at 4° C. for […].

In another series the target is T5, hPUF_MT(R3→R5) (UniProt Q14671 SEQ:1-349).
T5 chain: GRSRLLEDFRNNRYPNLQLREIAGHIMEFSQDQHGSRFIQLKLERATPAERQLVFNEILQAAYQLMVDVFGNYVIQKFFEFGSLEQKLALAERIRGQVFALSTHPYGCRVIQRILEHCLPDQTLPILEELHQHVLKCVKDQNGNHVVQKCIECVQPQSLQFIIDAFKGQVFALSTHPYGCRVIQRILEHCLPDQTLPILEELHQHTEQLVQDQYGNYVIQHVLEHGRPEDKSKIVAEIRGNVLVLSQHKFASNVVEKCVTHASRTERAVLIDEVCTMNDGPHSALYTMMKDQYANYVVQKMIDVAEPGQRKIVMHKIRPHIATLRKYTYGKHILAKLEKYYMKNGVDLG
Briefly: EMSA; comparable to WT. Particulars: label: Alexa680 at 5' and 3'. The method, then: as §1, §2

For another series, the target named is hPUF_MT(905A) (UniProt Q14671 SEQ:1-349, F905A). Briefly: EMSA; not significantly affected. To be noted: tags: MBP; label: Alexa680 at 5' and 3'. Here is the method: as §1, §2
The target of another series is T6, hPUF_MT(R3→R5, R4→R6).
T6 chain: T1 chain with S72N, E76Q
The experiment in a line: EMSA; binds U (R2 position) >> C. To be noted: label: Alexa680 at 5' and 3'. Here is the method: as §2
The solution obtained after the binding reaction was applied to 6% a non-denaturing polyacrylamide gel, followed by electrophoresis at 4° C. and 200 V. When the electrophoresis marker (2 μL of 6×Dye+10 μL of 1×binding buffer) moved by 0.5 cm, the voltage was changed to 100 V, and electrophoresis was continuously performed until the electrophoresis marker moved by 3 cm. Finally, RNA was detected with Odyssey.

Numbering of substitutions follows the chain as printed.

Turning to CCAGAAUUGUAUAUAUUCG (ssRNA) [OTS-1511], the binding result in series [1] is “no binding”; in series [2] it was “no binding”; in series [3] it was “no binding”; with hPUF_MT(R4→R6), “binds”; with hPUF_MT(R3→R5) it was “binds”; in the series with hPUF_MT(905A), “binds”. Besides, in the series with hPUF_MT(R3→R5, R4→R6), the binding result is on record as “binds”.
